In the supplement of paper PMC10126150:
± gives the standard deviation of the averaged measurements.

System: ATP
Test: switch fluorescence ratio, 500 uM ATP over buffer (Cy3 cluster intensity, sum of 5 cycles each) (fold (ratio)); higher = stronger signal-on switching upon ATP binding; sequences stand for … in TCGTCGGCAGCGTCAGATGTGTATAAGAGACAGTTTTTTTTTTTTTTTTTTTTTTTTT…TC
Conditions: aptamer strand: ATP DNA aptamer (quencher-CACCTGGGGGAGTATTGCGGAGGAAGG + anchor), 100 nM annealed; ATP concentration: 500 uM
Summary of the method: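 Five buffer/ATP imaging cycles were run on Cy3-labelled switching-strand clusters on a modified Illumina MiSeq flow-cell, with NaOH stripping and re-annealing between cycles. In each cycle, clusters annealed to 100 nM quencher-labelled ATP aptamer were imaged in selection buffer, then after 15 min with 500 uM ATP at 22 °C. Per cluster, the fluorescence ratio is summed target-cycle over summed buffer-cycle Cy3 intensity, averaged per switch-domain sequence. Only clusters within 100-1000 RFU were kept.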
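Also: ATP exposure 15 min at 22 °C before imaging.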

Row | Sequence | switch fluorescence ratio
1 | TGTTTTATCG | 0.999 ± 0.028
2 | GGGGTTAAAC | 1.04 ± 0.034
3 | TTGGAATTCT | 1.04 ± 0.081
4 | GAGCCGTATT | 1.02 ± 0.093
5 | TTTAGAGCGT | 0.9933 ± 0.0013
6 | AGGGATAATT | 0.975 ± 0.027
7 | GGGCGAAGCG | 0.986 ± 0.035
8 | TGGGGGGACA | 0.985 ± 0.015
9 | GCAAGTTGGG | 1.01 ± 0.028
10 | AAGTGCAGCC | 1.01 ± 0.023
11 | ACGGCTGCGT | 1.05 ± 0.029
12 | ATGTAGGCGT | 0.967 ± 0.021
13 | GTGCAATAGT | 3.71 ± 0.63
14 | GGTAGGAAAA | 0.972 ± 0.076
15 | ATGGGGTACG | 0.972 ± 0.06
16 | GACGACGGAG | 0.969 ± 0.034
17 | GCGGGTTATG | 1.02 ± 0.029
18 | ATAAGGCTTT | 0.989 ± 0.029
19 | AGGTTGGATC | 0.995 ± 0.088
20 | TCGGACCCTA | 1.03 ± 0.041
21 | GAGTTGTGAT | 1 ± 0.019
22 | TTCCTGGAC | 1.7 ± 0.39
23 | TTGATGGGAT | 0.988 ± 0.052

Row | Sequence | switch fluorescence ratio
24 | CATGGGGTTT | 1.01 ± 0.018
25 | GGGCGGCACG | 0.966 ± 0.054
26 | TCTATTATTT | 1.03 ± 0.061
27 | TTGCGACGCT | 1.17 ± 0.13
28 | TTTAGTGTAT | 0.991 ± 0.04
29 | AGGGGAGGAC | 1.03 ± 0.02
30 | TTTTTCCGCA | 2.18 ± 0.83
31 | TTTGCCCCTT | 1.02 ± 0.03
32 | TGTCCGAGCA | 1.75 ± 0.058
33 | GCAGGTTGGC | 0.992 ± 0.029
34 | AGTTTGGGTG | 1.01 ± 0.0051
35 | TTGATGCGGA | 0.971 ± 0.05
36 | ACTGCAAAAT | 1.127 ± 0.0017
37 | CGGTGGCGTC | 1.01 ± 0.048
38 | GAAGTGCATT | 0.98 ± 0.053
39 | TTAAGAGGG | 0.987 ± 0.014
40 | CAGGTGAGTG | 1.251 ± 0.0088
41 | GTTTACTATA | 1.06 ± 0.049
42 | ATGAGTGTGG | 1.02 ± 0.021
43 | GGCGTATATG | 0.973 ± 0.027
44 | AGTGTCAGAA | 0.9896 ± 0.0084
45 | TTTAAAGTGT | 0.997 ± 0.029
46 | CGTACGTGCA | 1.02 ± 0.032

Row | Sequence | switch fluorescence ratio
47 | GCTCTTAAGG | 0.982 ± 0.051
48 | AATTTCAAGT | 1 ± 0.039
49 | GGAAGTCGGT | 0.968 ± 0.022
50 | TATTCGTGGG | 0.956 ± 0.048
51 | GCTATAGGGA | 0.957 ± 0.014
52 | GTGATCATCG | 1.0081 ± 0.00023
53 | TGTGAAGTGG | 1.02 ± 0.034
54 | ATTGCCCGTC | 0.992 ± 0.038
55 | TCTGATGGGG | 1 ± 0.044
56 | GACATGGCAG | 1.02 ± 0.04
57 | TTTGATAGAT | 0.977 ± 0.012
58 | GCAATAATGC | 1.603 ± 0.014
59 | CGGGGTAGCG | 0.965 ± 0.013
60 | CTGGGTAGAC | 1.08 ± 0.011
61 | AATGTTGGAG | 0.985 ± 0.028
62 | TTGGGATAAC | 1.04 ± 0.058
63 | TCTCGGCGGA | 1.02 ± 0.028
64 | GAACTCTGGG | 0.9899 ± 0.006
65 | GGTTGTCCTA | 0.978 ± 0.023
66 | TATTACTTGC | 1.03 ± 0.042
67 | CGTTTAATAT | 1 ± 0.033
68 | TCTCGTTTTT | 1 ± 0.043
69 | AGGGAGTTTT | 1.01 ± 0.026

Row | Sequence | switch fluorescence ratio
70 | TACCGGGGGT | 1.63 ± 0.83
71 | CACTAAGTGG | 1.025 ± 0.0023
72 | GCTAGGGGGT | 1.02 ± 0.09
73 | GAGTATGCCC | 1.02 ± 0.039
74 | ATATCGGATG | 1.071 ± 0.0078
75 | AGGATTGTGT | 0.9523 ± 0.0032
76 | CTGCGGGTTA | 1.01 ± 0.015
77 | TCGGGGGGCA | 0.992 ± 0.028
78 | AGCGGTTAAT | 0.984 ± 0.019
79 | TATTGGTAGG | 0.941 ± 0.019
80 | GGGGCGGGAT | 1.01 ± 0.02
81 | AAGTAGGGGA | 1.02 ± 0.021
82 | CGGCTTGGGG | 1 ± 0.015
83 | CTCTGAGAGG | 0.9719 ± 0.0043
84 | TTGGTGCTGT | 1.01 ± 0.017
85 | TAAGGCGAGT | 1.03 ± 0.052
86 | TAAAAGACCG | 1.077 ± 0.007
87 | AGACGGTTTG | 1.01 ± 0.017
88 | CAGAGTTAAT | 0.993 ± 0.045
89 | TGAATATCTT | 1.01 ± 0.026
90 | AATATGTAAT | 0.989 ± 0.021
91 | CGGGCTGGCA | 1.004 ± 0.01
92 | AGTGTGAGGC | 1.03 ± 0.028

Row | Sequence | switch fluorescence ratio
93 | CAGAGGTTCC | 1.05 ± 0.042
94 | ATGGAGTCGG | 0.986 ± 0.021
95 | AGGTTCCTAG | 0.9775 ± 0.0049
96 | ATTAGCTTAG | 0.987 ± 0.017
97 | CGTCGGTTTG | 0.993 ± 0.019
98 | ATACCAATGA | 1.05 ± 0.029
99 | TATTGTTTTT | 1.01 ± 0.022
100 | AATAGAACTT | 1.02 ± 0.061
101 | ATGCGGGTTC | 1.01 ± 0.012
102 | GATACATGCT | 0.979 ± 0.036
103 | TACTTTTCGT | 0.995 ± 0.024
104 | TCGCAAAATA | 2.47 ± 1.2
105 | TACGGGGCGA | 1.07 ± 0.036
106 | TAGGAGTGCT | 0.9896 ± 0.0066
107 | GGAATCCGTA | 1.05 ± 0.046
108 | TCGCAGGGTG | 1.43 ± 0.47
109 | ACTTTTTATA | 0.968 ± 0.082
110 | GTTTAACTAT | 1.015 ± 0.0038
111 | TTTGTTAGAT | 0.993 ± 0.022
112 | CTGAGTTTAT | 0.997 ± 0.023
113 | GATTGCAGGA | 0.9989 ± 0.0039
114 | GGGGAAGGGC | 1.02 ± 0.053
115 | TATTAGTGAT | 0.9869 ± 0.0055

Row | Sequence | switch fluorescence ratio
116 | GTGCCTTAGG | 0.99797 ± 0.00039
117 | ACTTTTAGGT | 1.0193 ± 0.00024
118 | TGATCCAGGG | 0.9873 ± 0.0081
119 | AGGATCCTCG | 0.992 ± 0.018
120 | AGAGGGGAAG | 1.005 ± 0.0087
121 | AACTATTGTA | 1.01 ± 0.022
122 | TTGGGACTGT | 0.978 ± 0.054
123 | GATAGGGGCG | 0.998 ± 0.026
124 | AGTAAGGTTG | 0.961 ± 0.054
125 | CCTTTTTTGG | 1.02 ± 0.021
126 | AGAGGTTGCG | 0.955 ± 0.073
127 | ACCAGCCTGG | 1.01 ± 0.025
128 | TGGGGCTTCA | 1.01 ± 0.028
129 | TTCTTTTCTT | 1.02 ± 0.047
130 | AAGGGCTTTA | 1.01 ± 0.023
131 | CGGGATTATG | 1.01 ± 0.052
132 | ATTTAAGAAT | 1.022 ± 0.0061
133 | TTATTACGCT | 0.9981 ± 0.0094
134 | AGAAGGGCA | 0.983 ± 0.042
135 | GACGAGGAGG | 1 ± 0.017
136 | GTGATTGATC | 1.04 ± 0.023
137 | GCCGTACCTG | 1.041 ± 0.00042
138 | ATGAATCTCG | 0.9898 ± 0.0075

Row | Sequence | switch fluorescence ratio
139 | CCCATAGTAT | 1.01 ± 0.058
140 | GAGATCGCC | 0.982 ± 0.016
141 | TGTATGGCTA | 1.0085 ± 0.00081
142 | TATATTGGGG | 0.991 ± 0.018
143 | TAAGCTGGCT | 1.025 ± 0.0092
144 | TTTCAGTCGG | 1.006 ± 0.0037
145 | TTTTTTGTAG | 1.01 ± 0.016
146 | CTGCGAGGAT | 1.01 ± 0.034
147 | CAGTTAGGGG | 1.02 ± 0.013
148 | GGGGGGGGAG | 1.01 ± 0.03
149 | AAGCCAAGAG | 1.05 ± 0.027
150 | GACCGGGAGC | 0.995 ± 0.011
151 | ATTTGGGGTT | 0.997 ± 0.031
152 | GGACTAGGGA | 1.01 ± 0.018
153 | TTGGGGAATT | 1 ± 0.019
154 | TTTGTGCACC | 0.9941 ± 0.005
155 | TTTTTTCCGC | 1.34 ± 0.35
156 | AATTAGGGAA | 1.01 ± 0.023
157 | AATGGGGACT | 1 ± 0.012
